Measurements reported in patent US10295490B2, “MEMS-based calorimeter, fabrication, and use thereof” (The Trustees Of Columbia University In the City of New York, priority 2014, dated 2019).

Tests used:
[1] = cited from earlier work
[2] = Polymer MEMS DSC measurement of lysozyme unfolding (Example 6); type: physicochemical; conditions: 0.1 M Glycine-HCL buffer pH 2.5; scan 5 K/min; all concentrations except 1 mg/mL
Protocol: The sample solutions and buffer were degassed overnight in a vacuum chamber built in-house, metered with Micropipettes, and introduced by a syringe pump (New Era Pump Systems, Inc., NE-1000) before the DSC measurements.
Before DSC measurements, the baseline, i.e., the thermopile output voltage in the absence of a differential power input, during temperature scanning in the range of interest was recorded with both calorimetric channels filled with buffer solutions. After which, characterizations of biomolecules were performed with the calorimetric channels, respectively filled with a biological sample and a buffer solutions, and scanned in the same range with pre-specified rate. The temperature sensors were used to monitor the temperatures of calorimetric channels, while the device output was obtained in real time to compute the biomolecular thermal power.
The calibrated polymer MEMS DSC device was then exploited to characterize protein unfolding. […]
The thermopile differential voltage as a function of temperature, corrected by baseline subtraction, was measured at varying concentrations ranging from 1 to 20 mg/mL (FIG. 42). […] Furthermore, the differential heat capacity as a function of temperature and the calibrated device sensitivity can be calculated from the device voltage output by Equation 7. The sample heat capacity as a function of temperature was determined by: […]

[3] = MEMS DSC measurement of lysozyme unfolding (Example 2); type: physicochemical; conditions: 0.1 M Glycine-HCl buffer pH 2.5; 1 to 20 mg/mL; scan 25-75° C. at 5° C./min
Protocol: DSC measurements of biomolecules were performed using the calibrated microdevice, whose sample chamber and reference chamber were respectively filled with biological sample and buffer solutions, scanned in a range of temperature of interest. The temperature sensors were used to monitor the temperatures of calorimetric chambers while the device output was obtained in real time to compute the biomolecular thermal power. Before DSC measurements, the baseline in device output, i.e., the thermopile output voltage in the absence of a differential power input, during temperature scanning was measured with both calorimetric chambers filled with buffer solutions. […]
The thermopile output voltage as a function of temperature, corrected by baseline subtraction, was measured at varying protein concentrations ranging from 1 to 20 mg/mL (FIG. 10).
Despite the amplitude difference of device output at various protein concentrations, they all yielded consistent estimates of the thermodynamic properties associated with the protein unfolding process. In particular, the profile shape of c was generally not influenced by protein concentration, and ΔH was consistently determined to be approximately 450 kJ/mol with a corresponding melting temperature Tm of approximately 55° C.

[4] = MEMS AC-DSC measurement of lysozyme unfolding (Example 3); type: physicochemical; conditions: 10 and 20 mg/mL in 0.1 M Glycine-HCl pH 2.5, 5° C./min, modulation 1, 5 or 10 Hz
Description: The microdevice was also placed in a thermal enclosure built in-house. […] The AC-DSC measurement was fully automated through a Lab VIEW program.
The MEMS AC-DSC device calibrated above was used to measure the thermal behavior of protein unfolding.
Meanwhile, the specific heat capacity (c) of the protein as a function of temperature can be computed from the thermopile voltage amplitude (FIG. 19).

## lysozyme: targeted sample biomolecule, purchased from Sigma Aldrich (lyophilized powder, protein ≥90%), used for protein unfolding DSC
[1]
  Tm of lysozyme, published data: 55-58.9 °C
  ΔH of lysozyme unfolding, published data: 90.1 to 105 kcal/mol
[2]
  melting temperature Tm: 54.71 °C
  total enthalpy change per mole of lysozome (ΔH): 101 kcal/mol
[3]
  melting temperature Tm: approximately 55 °C
  total change of molar enthalpy (ΔH) of lysozyme unfolding: approximately 450 kJ/mol
[4]
  apparent melting temperature (Tm): 55-58 °C
